Paper PMC8366792

Key:
[1] = target: CH848 10.17DT DS SOSIP trimer (HIV-1 (CH848 10.17) | HIV-1 (BG505)) (UniProt Q2N0S6); assay: SEC
[2] = target: CH848 10.17DT SOSIPv4.1 trimer (HIV-1 (CH848 10.17) | HIV-1 (BG505)) (UniProt Q2N0S6); assay: SEC

Substance	percent of the total peak that is trimer [1]	stoichiometry N [1]	percent of the total peak that is trimer [2]
CH848 10.17DT DS SOSIP trimer (from UniProt Q2N0S6 509-661) (domain or fragment)	65%	3	
CH848 10.17DT SOSIPv4.1 trimer (from UniProt Q2N0S6 509-661) (domain or fragment)			62%
